Results reported in paper PMC6379431 (Nature Communications, 2019).
Changes are numbered by the printed parent chain. Names may count otherwise.

B1: mCldn3cryst P134G (domain or fragment)
chain: MSMGLEITGTSLAVLGWLCTIVCCALPMWRVSAFIGSSIITAQITWEGLWMNCVVQSTGQMQCKMYDSLLALPQDLQAARALIVVSILLAAFGLLVALVGAQATNAVQDETAKAKITIVAGVLFLLAALLTLVGVSWSANTIIRDFYNPLVPEAQKREMGAGLYVGWAAAALQLLGGALLAA
notes: also called P134G mutant; source: Sf9 insect cells (baculovirus), purified (as mCldn3cryst)
B2: mCldn3cryst P134A (domain or fragment)
chain: B1 chain with G134A
notes: also called P134A mutant; source: Sf9 insect cells (baculovirus), purified (as mCldn3cryst)

Target: the molecule itself
Assay: crystal structure

| Protein | binding result |
| --- | --- |
| B1 | binds |
| B2 | binds |
